Data reported in patent publication US11471509B2, “Compositions and methods relating to myomaker-induced muscle cell fusion” (The Board of Regents of the University of Texas System, priority 2013, dated 2022).

B1: Myomaker: muscle-specific membrane protein of 221 residues, expressed from pBabe-X retrovirus (protein, UniProt Q9D1N4 1-221, looked up)
Protein myomaker: MGTVVAKLLLPTLSSLAFLPTVSIATKRRFYMEAMVYLFTMFFVAFSHACDGPGLSVLCFMRRDILEYFSIYGTALSMWVSLMALADFDEPQRSTFTMLGVLTIAVRTFHDRWGYGVYSGPIGTATLIIAVKWLKKMKEKKGLYPDKSIYTQQIGPGLCFGALALMLRFFFEEWDYTYVHSFYHCALAMSFVLLLPKVNKKAGNAGAPAKLTFSTLCCTCV
B2: Tmem8b: closest relative of Myomaker/Tmem8c, not muscle-specific (protein, UniProt B1AWJ5 1-472, looked up)
Transmembrane protein 8B: MNMPQSLGTQPLPPEPPSLGTPIEGSGAIAPTEHCWPVRPTLRNELDTFSVHFYIFFGPSVALPPERPAVFALRLLPVLDSGGVLSLELQLNASSLRQENVTVFGCLTHEVPLSLGDAAVTCSKESLAGFLLSVSATSRVARLRIPFPQTGTWFLTLRSLCGVGPRFVRCRNATAEVRLRTFLSPCVDDCGPYGQCKLLRTHNYLYAACECKAGWRGWGCTDSADALTYGFQLLSTLLLCLSNLMFLPPVVLAIRSRYVLEAAVYTFTMFFSTFYHACDQPGIVVFCIMDYDVLQFCDFLGSLMSVWVTVIAMARLQPVIKQVLYLLGAMLLSMALQLDRHGLWNLLGPSLFALGILATAWTVRSVRRRHCYPPTWRRWLFYLCPGSLIAGSAVLLYAFVETRDNYFYIHSIWHMLIAGSVGFLLPPRAKTDRRVPSGARARGCGYQLCINEQEELGLVGPGGTTVSSICVS

Tests used:
[1] = test system: 10T1/2 fibroblasts mixed with C2C12 cells; experiment: Cell mixing: infected 10T1/2 fibroblasts with C2C12 myoblasts; type: cell-based
Experimental: WT myoblasts were mixed with either Myomaker+/− or Myomaker−/− myoblasts at equal ratios (approximately 1×10^5 cells per genotype), plated on a well of a laminin coated 12-well plate, and induced to differentiate the next day. 10T1/2 fibroblasts were infected with either GFP- and empty-retrovirus or GFP- and Myomaker-retrovirus for 18 h. After infection, cells were washed multiple times and then trypsinized, and mixed with C2C12 myoblasts at a 1:1 ratio (1×10^5 of each cell type) and plated on one well of a 6 well plate in differentiation media. GFP and myosin expression was analyzed 4 days after differentiation. […]
Each histological analysis of embryonic skeletal muscle was performed on four samples per genotype. The differentiation index was calculated as the percentage of nuclei in myosin-positive cells. The fusion index was calculated as the percentage of nuclei contained in myosin-positive myotubes. […] To quantitate fusion between WT myoblasts and either Myomaker+/− or Myomaker−/− myoblasts, the inventors calculated the percentage of LacZ+ myotubes containing ≥3 nuclei. To quantitate fusion between fibroblasts and myoblasts, the inventors calculated the percentage of GFP+ myosin+ cells or the percentage of BrdU+ myotube nuclei. For each quantitation, at least 3 independent experiments were performed in duplicate and at least 6 random fields were imaged per sample. […]

C2C12 myoblasts = experiment: Retroviral over-expression in C2C12 cells, myoblast fusion; type: cell-based; settings: 4 days of differentiation

| Molecule | fusion of infected fibroblasts with C2C12 cells ([1]; 10T1/2 fibroblasts infected with GFP and Myomaker virus, mixed 1:1 with C2C12, 4 days differentiation) | fusion of fibroblasts in the absence of myoblasts ([1]; fibroblasts expressing Myomaker, no myoblasts) | myoblast fusion after forced expression (C2C12 myoblasts) |
| --- | --- | --- | --- |
| B1 | robustly fused with C2C12 cells | not sufficient to induce fusion of fibroblasts | dramatic increase in fusion |
| B2 | – | – | did not promote fusion |
